# Assay results from the domain aggregation screens of Martell et al. (2025).
# Assay: soluble fraction after stress (log2 fold change); higher = more stays soluble; pooled small domains, quantitative proteomics
# Settings: stress: pH 4
# Summary of the method: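 After pH 4 stress, pooled custom libraries of small protein domains were quantified with high-throughput quantitative proteomics. Aggregation propensity is taken from the fold change in each domain's soluble amount following the acid stress. The scale is log2, where higher values mean more stayed soluble.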
row,Sequence,soluble fraction (log2)
1,HMTTAGTAIVQTGNSGKLNLREQAYANAGILGRYSNGTAVTVLQKGAAWSYVEVKGQKGYMMSKFLKFTS,-0.341
2,HMTTEIVRMKKDVKIGQEITAKDIEVVEVGAYNLPDEVIRSSEEVVGKYVSSELLKGEYVLPSKISDTP,-0.53
3,HMTTEPYILTRMPDGSIKAEPNLNYKGPEQKPGSNIQVKGADGRIYLVPIDGQGKPGKPQLVD,0.127
4,HMTTGLETYPGKIAVVSDDFIDGEGRVQLDGALWRAKTKDHQQLKQGDHVTIVNVKGLTLTVMPDD,-0.0405
5,HMTTGREGLIGAVGTVRQAIAPEGYVFVEGELWRAKSPAGPLEPGTTVRVIAIDGLTLTVMPAE,-0.564
6,HMTTGTVKWFNDAKGFGFITPDDRSVDVFVHYSNIVGQSGRRTLMEGERVEYEAIEGPKGPQATDVARA,-1.06
7,HMTTIFDNINGELRRRHLTQQDLAKTIEIDRRTWSKWQDKNDMPASVLLQIAKWLNVTLDYLTRD,0.0559
8,HMTTIKLTQEDVEKIKSLPKRTFLIGNLQQTGLYDEKTRRFYYLDANGEWNGRLAIINTPPPPPPPP,-0.0951
9,HMTTKYMVLVNWVKEKVRTNELKTGEKLYSEHEFSRMFHMSRQTVRHGISILERENIVERRQGSGTFIKDA,-0.223
10,HMTTKYVAVHESKDGYWTIASKPSSKEDAEAMLGGTPKNEVGKVVTLEEAKAHKKTLGEEYLYE,≥ 0.43
11,HMTTMTTGQRIAAKRKEQGLSQENLGEQLGVSRQAIYKWESDASLPDIDKLIALSRLFGVSTDYLLLE,-1.68
12,HMTTQIPEEVQKRVNQFYEALDEEDYGEAKQILEELEKATAPDHPTLIQMRTRYEFDTMELR,-1.1
13,HMTTTPAERQRTILRSLNRVDPVSVDALARLTGVSVVTIRRDLSDLASRDLIRRVHGGALLPTR,0.339
14,HMTTYSVDLGDIRAVADSDGKLVELTLHAAVTTHYSHSELADRLNLAFTALREEAQADYETRY,-0.0597
15,HMTTYTGVVTGSGVNVRSGAGTSYPVVGSKTMGDVVTITETVSADGMIWGKIDIGWISMNYVRM,-0.434
16,HMTVAQEIEARRATIRSSDPAEMARFIRWLIMEGHTEPAADELKKYAENFPEASATTKQLQALLAAR,0.147
17,HMTVDIADALRVLGLSDAPDWSDVRAAHRRAIVRTHPDAGGSAGDAARVNQAFDLLRKISGNGERPIPG,0.0966
18,HMTVDTSELEEMIDDLIKEHPNEWERYSSGEKKVQGFFVGQVMKATSGQADGKAINQILSKRVKS,0.000391
19,HMTVDYDKFTKDTVVQHNKFGKGVIIMTSGDGEDKIASIAFQGLGVKRFSLAIAASNLKILGKVNED,-0.195
20,HMTVEVFQSLVQTFREMSPRKAASILEELKRDLAVEILLHMPEDGVAAILARMDPARAARLTEQLALEKD,-0.867
21,HMTVGEAHLEEVYLKVLKQVEEQGTALIRTTDVETGRPAAGIRRRYMRGTLPDEWVAKFEALPGWTWAPG,-0.952
22,HMTVGEKIQKYRKDLDLSQEELGQKLLVSRQTISLWEKDQTVPTIDNLIRLREIFGVSVDEILGF,-1.69
23,HMTVIARQIPPLVPRMLDGLEAFIKLDVPFEEKERLARVQMLRSSLDRDNLDTAEIFRAVLEAYNIELQY,0.195
24,HMTVKKEIAKVKPTPLGWLRVRETPSLNGAEITKVNTGESYDVLDKETGWIKIKVSETVEGWVSDAYIELS,0.124
25,HMTVLPTENDAKALVGLNEDEAVKIIEGNGWTYRIGSRDGEQFMLTEDYSTSRLTLGIEKSIVVTATI,-0.56
26,HMTVLVPNLTGKTLLEAEILLDQAGLKKGDVYSESNKNVPKDHIIRQKPAPNTKIQKGATIDIYRSLGPE,-0.0793
27,HMTVNLPPKQKAAILLMSLPPEVSAQLFKELGPDEVHAITLEISKLPPISPDVRAQVIDEFLHSS,-0.226
28,HMTVSIGSVIARERRLRGDTQQELAERLGVSKAAVSKWEVGQSIPDVTLLPRIAAYFSLTLDEL,-0.276
